Experimental data taken from paper PMC4410316.
Read-outs that look alike come from different tables or passages of the source.

Columns and labels:
[1] = biological target: T1, human thrombin (HT) (Homo sapiens (human), UniProt P00734;P00734 328-363;364-622); assay: nanopore single-molecule
[2] = biological target: T1, human thrombin (HT); assay: nanopore single-molecule titration
[3] = biological target: T1, human thrombin (HT); assay: nanopore single-molecule titration; remark: listed apart in the source
[4] = biological target: T1, human thrombin (HT); assay: nanopore single-molecule titration; remark: listed apart in the source
[5] = biological target: T1, human thrombin (HT); assay: nanopore single-molecule titration; remark: listed apart in the source

Does CACCATCACCACCATCAT (ssDNA) [Random DNA] bind [1]?
Result: no binding

For GGATGGTGTGGTTGG (structured_DNA) [TBA-T3A], which Kd [2] is on record?
Its Kd is 6 ± 1 nM.

With GGTTGGTGTGGATGG (structured_DNA) [TBA-T12A] as the binder, how does the Kd [3] read?
The Kd was 7 ± 1 nM.

GGTTGGTGTGGTTGG (structured_DNA) [TBA] was tested. Which Kd [4] did it give?
The Kd was 13 ± 3 nM.

What about the Kd [5] of the same binder?
The Kd was 8 ± 1 nM.
